Data taken from article PMC4051120, “Drastic changes in conformational dynamics of the antiterminator M2-1 regulate transcription efficiency in Pneumovirinae”.

B1: leader RNA 1-12 (positive sense) (ssRNA)
RNA: ACGCGAAAAAAU
B2: F gene end RNA (positive sense) (ssRNA)
RNA: AGUUAAUUAAAAA

Key:
HMPV M2-1 [1] = target: T1, HMPV M2-1 (Human metapneumovirus strain NL1-00 (A1), UniProt Q8QN58 1-187); test: SAXS titration; Zn2+ (zinc finger intact); 150 mM NaCl, 500 mM NDSB-201; Rg increase, aggregation; SAXS: 20 mM Tris pH 7.5, 150 mM NaCl, 500 mM NDSB-201, +/- 5 mM EDTA, ~0.2 mg/ml protein; TSA: 50 mM HEPES pH 7.5, 150 mM NaCl, 20-99 C; crystals: 28% PEG MME 2000, 0.1 M bis-Tris pH 6.5, 20 C; details: protein: recombinant; tags: N-terminal His6-3C, optionally removed by 3C protease; chain copies: 4
HMPV M2-1 [2] = target: T1, HMPV M2-1; test: SAXS titration; Zn2+ (zinc finger intact); 150 mM NaCl, 500 mM NDSB-201; closed conformation induced, Rg up to ~8 nm, aggregation; SAXS: 20 mM Tris pH 7.5, 150 mM NaCl, 500 mM NDSB-201, +/- 5 mM EDTA, ~0.2 mg/ml protein; TSA: 50 mM HEPES pH 7.5, 150 mM NaCl, 20-99 C; crystals: 28% PEG MME 2000, 0.1 M bis-Tris pH 6.5, 20 C; details: protein: recombinant; tags: N-terminal His6-3C, optionally removed by 3C protease; chain copies: 4

Binder | binding result (HMPV M2-1 [1]) | binding result (HMPV M2-1 [2])
B1 | binds | –
B2 | – | binds
